Experimental data published in the nanobody polyreactivity screen of Harvey et al. (2022).

Test: yeast display, Sf9 membrane polyspecificity reagent, FACS + sequencing; frameworks hold sequencing errors
In short: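 Synthetic nanobody libraries on Saccharomyces cerevisiae BJ5465 were galactose-induced for 36–48 hours, stained 1 hour at 4 °C with 10% biotinylated, detergent-solubilized Sf9 membrane reagent and enriched on streptavidin microbeads. FACS then separated cells into low and high (top ~1%) gates by anti-HA (expression) and streptavidin (reagent binding) fluorescence. Genes were colony-PCR amplified, MiSeq 2 × 250 sequenced and CDR-length filtered. A clone's polyreactivity label is that of its gate of origin.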

| Sequence | polyreactivity (PSR sort gate) |
| --- | --- |
| QVQLVESGGGLVQAGGSLRLSCAASGNTFAQNTMGWYRQAPGKEREFVAGITFSGTGTYYADSVKGRFTISRDNAKNTVYLQMNSLKPEDTAVYYCAADTPTPGLFYWFYPHRGYWGQGTQVTVSS | low polyreactivity |
| QVQLVESGGGLVQAGGSLRLSCAASGNTFATYAMGWYRQAPGKERELVAAITWSGGSTYYADSVKGRFTISRDNAKNNVYLQMNSLKPEDTAVYYCAADYLYYAIPAYYWDTGYDYWGQGTQVTVSS | low polyreactivity |
| QVQLVESGGGLVQAGGSLRLSCAASGNTFAVNAMVWSRQAPGKERELVAAISRTGGRTYYADSVKGRFTISRDNAKNTVYLQMNSLKPEDTAVYYCAAEYYYTSQLAKYHYGYEYWGQGTQVTVSS | high polyreactivity |
| QVQLVESGGGLVQAGGSLRLSCAASGNTFAYYAMGWYRQAPGKERELVAAITSTGVRTYYADSVKGRFTISRDNAKNTVYFQMNSLKPEDTAVYYCNAEYWRVWYLHYYYEYDYWGQGTQVTVSS | high polyreactivity |
| QVQLVESGGGLVQAGGSLRLSCAASGNTFCPYAMGWYRPAPGKERELVARISRSGSSTYYADSVKGRFTISRDNAKNTVYLQMNSLKPEDSAVYYCARGRTIRSSRTVGSWGQGTQVTVSS | high polyreactivity |
| QVQLVESGGGLVQAGGSLRLSCAASGNTFFIYAMGWYRPAPGKERELVAAITYSGGGTYYADSVKGRFTISRDNAKNTVYLQMYSLKPDDTAVYYCAADFYTGWSYIYDYWGHGTQVTVSS | high polyreactivity |
| QVQLVESGGGLVQAGGSLRLSCAASGNTFFPYTMGWYRQAPGKERELVAAITWSGVSTYYADSVKGRFTISRDNAKNTVYLQMNSLKPEDTAVYYCAAGPGYVRYPRSGVWYVTLYDYWGQGTQVTVSS | high polyreactivity |
| QVQLVESGGGLVQAGGSLRLSCAASGNTFGENAMGWDRQAPRKETELVAAITYGGTTNYADSVKGRFTISRDNAKNTVYLQMNSLKPEDTAVYYCNAKFGISQPGHSGLLKMDYWGQGTQVTVSS | low polyreactivity |
| QVQLVESGGGLVQAGGSLRLSCAASGNTFGKYGVGWYRQAPGKEREFVAAITSRGTSTYYADSVKGRFTISRDNEKNTVYLQMNSLKPEDTAVYYCNARPRYKYPRYDYWGQGTQVTVSS | high polyreactivity |
| QVQLVESGGGLVQAGGSLRLSCAASGNTFGLYAMGWYRQAPGKERELVATITWSVSTYADSVKGRFTISRDNAKNTVYLQMNSLKPEDTAVYYCAATTGPWYWRYDYWGQGTQVTVSS | high polyreactivity |
| QVQLVESGGGLVQAGGSLRLSCAASGNTFGPYDMGWYRQAPGKERELVAGITSGGSTYYADSVKGRFTISRDNAKNTVYLQMNSLKPEDTAVYYCAADYYLWVYWYDYWGQGTQVTVSS | high polyreactivity |
| QVQLVESGGGLVQAGGSLRLSCAASGNTFGRYAMGWSRQAPGKEREFVAAIRWRGATTYYADSVKRRFTISRDNAKNPVDLQMNSMKPEDTAVYYCAAYYWGQGTGFDYWGQGTQVTVSS | high polyreactivity |
| QVQLVESGGGLVQAGGSLRLSCAASGNTFIYYAMGWYRQAPGKERELVAAITWSGGSTYYADSVKGRFTISRDNAKNTVYLQMNSLKPEDTAVYYCAKFTHNYYYWGQGTQVTVSS | high polyreactivity |
| QVQLVESGGGLVQAGGSLRLSCAASGNTFKYYAMGWYRQAPGKERELVATISRTAGSTYYADSVKGRFTISRDNAKNTVYLQMNSLKPDDTAVYYCNKDRGHPFKYDYWGQGTQVTVSS | low polyreactivity |
| QVQLVESGGGLVQAGGSLRLSCAASGNTFLYYGMGWYRQAPGKERELVAAITQSGGTTYYADSVKGRCTISRDNAKNPVYLQMNSLKPEDTAVYYCAATRYYYYWYVYDDRGDYWGQGTQVTVSS | low polyreactivity |
| QVQLVESGGGLVQAGGSLRLSCAASGNTFPRYVMGWYRQAPGKERELVADITRRGGSTYYADSVKGRFTISRDNAKNTVYLQMNSLKPEDTAVYYCAALYLYGHQFYNDYYYWGQGTQVTVSS | high polyreactivity |

| Sequence | polyreactivity (PSR sort gate) |
| --- | --- |
| QVQLVESGGGLVQAGGSLRLSCAASGNTFPTNVMGWYRQAPGKERELVAAITRSGGTTYYADSVKGRFTISRDNAKNTVYLQMNSLKPEDTAVYYCAAGPTQGWGRGYWGQGTQVTVSS | high polyreactivity |
| QVQLVESGGGLVQAGGSLRLSCAASGNTFRIYTMGWYRQSPGKEMELVATITRRGGSTYYADSVKGRFTISRDYAKNTVYLQMKSLKPEDTAVYYCAATTKLPRGHYWNYYWGQGTQVTVSS | high polyreactivity |
| QVQLVESGGGLVQAGGSLRLSCAASGNTFRIYTMVWYRQAPGKERELVATITRRGGSTYYADSVKGRFTISRDNAMNTVYLQMNSLKPEDTVVYYCAARVRGTGVYGGYNYWGQGTLVTVSS | high polyreactivity |
| QVQLVESGGGLVQAGGSLRLSCAASGNTFRRYAMGWYRQAPGKEREFVAAISSSGGRTYYADSVKGRFTISRDNAKNTVYVQMNSLKPEDTAVYYCNAVSYWVRGEMDYWGQGTQVTVSS | high polyreactivity |
| QVQLVESGGGLVQAGGSLRLSCAASGNTFRSYAMGWYRQAPGKERELVAAISSTGNTYYADSVKGRFTISRDNAKNTVYLQMNSLKPEDTAVYYCAASKWRRADYYYWGQGTQVTVSS | high polyreactivity |
| QVQLVESGGGLVQAGGSLRLSCAASGNTFSGTTMGWYRQAPGKERELVAAIRFTGGSTTYADSVKGRFTISRDNAKNTVYLQMNRLKPEDTAVYYCNTDWVSFRSIYHEYDYWGQGTQVTVSS | low polyreactivity |
| QVQLVESGGGLVQAGGSLRLSCAASGNTFSQYAMGWYRQAPGKERELVATISKSSGSTSYADSVKGRFTISRDNAKNTVYLQMNSLKPEDTAVYYCNADSSDVYHHLGVLFFSTWYDYWGQGTQVTVSS | low polyreactivity |
| QVQLVESGGGLVQAGGSLRLSCAASGNTFTWYTMGWYRQAPGKERELVAGITWSGGSTFYADSVKGRFTISRDNAKNTVYLQMNSLKPEDTAVYYCAVSTEVNRYHAKYDYWGQGTQVTVSS | low polyreactivity |
| QVQLVESGGGLVQAGGSLRLSCAASGNTFTWYTMGWYRQAPGKERELVAVITSDGSTYYADSVKGRFTISRDNAKNTVYLQMNRLKPEDTAVYYCNALSADWYPEEDYWGQGTQVTVSS | low polyreactivity |
| QVQLVESGGGLVQAGGSLRLSCAASGNTFTYYALGWYRQAPGTEREVVASISSGGSTNYADSVKGRFTISRDNAKNTVYLQMNRLKPEDTAVYYCARGWSFSTRRFQHTRYYYWGQGTQVTVSS | high polyreactivity |
| QVQLVESGGGLVQAGGSLRLSCAASGNTFVAYTMGWYRPAPGKERELVAAISWRGGTTYYADSVKGRFTISRDNAKNTVYLQMNSLKPEDTAVYYCAARTSYISHGYVTHGLYYWGQGTQVTVSS | high polyreactivity |
| QVQLVESGGGLVQAGGSLRLSCAASGNTFVDYAMGWYRQAPGKERELVAAISDGGSTNYADSVKGRFTISRDNAKNTVYLQMNSLKPEDTAVYYCAKDELYIPGVWPYYEYDYWGQGTQLTVSS | low polyreactivity |
| QVQLVESGGGLVQAGGSLRLSCAASGNTFVPYAMGWYRQAPGKERELVAAITFSAGRTYYADSVKGRFTISRDNAKNTVYLQMNSLKPEDTAVYYCNVYWYNNYRGYYYWGQGTQVTVSS | high polyreactivity |
| QVQLVESGGGLVQAGGSLRLSCAASGNTFVQNTMGWYRQAPGKERELVAAISSRGGSTYYADSVKGRFTISRDNAKNTVYLQMNSLKPEDTAVYYCAARSKVRRSYDYRGQGTQVTVSS | high polyreactivity |
| QVQLVESGGGLVQAGGSLRLSCAASGNTFVRNAMGWYRQAPGKERELVAAMSSRGTSTYYADSVKGRFTISRDNAKNTVYLQMNSLKPEDTAVYYCAAYQYPADFKLYYYWGQGTQVTVSS | high polyreactivity |
